Molecular target: Endogenous Ras of HEK-293T cells (human (endogenous in HEK-293T cells))
Test: cell-based or functional assay

B1: Flag-tagged full-length GRF4 (enzyme, not shown: small tags and cut ends)
chain: MKPLAIPANHGVMGQQEKHSLPADFTKLHLTDSLHPQVTHVSSSHSGCSITSDSGSSSLSDIYQATESEAGDMDLSGLPETAVDSEDDDDEEDIERASDPLMSRDIVRDCLEKDPIDRTDDDIEQLLEFMHQLPAFANMTMSVRRELCAVMVFAVVERAGTIVLNDGEELDSWSVILNGSVEVTYPDGKAEILCMGNSFGVSPTMDKEYMKGVMRTKVDDCQFVCIAQQDYCRILNQVEKNMQKVEEEGEIVMVKEHRELDRTGTRKGHIVIKGTSERLTMHLVEEHSVVDPTFIEDFLLTYRTFLSSPMEVGKKLLEWFNDPSLRDKVTRVVLLWVNNHFNDFEGDPAMTRFLEEFENNLEREKMGGHLRLLNIACAAKAKRRLMTLTKPSREAPLPFILLGGSEKGFGIFVDSVDSGSKATEAGLKRGDQILEVNGQNFENIQLSKAMEILRNNTHLSITVKTNLFVFKELLTRLSEEKRNGAPHLPKIGDIKKASRYSIPDLAVDVEQVIGLEKVNKKSKANTVGGRNKLKKILDKTRISILPQKPYNDIGIGQSQDDSIVGLRQTKHIPTALPVSGTLSSSNPDLLQSHHRILDFSATPDLPDQVLRVFKADQQSRYIMISKDTTAKEVVIQAIREFAVTATPDQYSLCEVSVTPEGVIKQRRLPDQLSKLADRIQLSGRYYLKNNMETETLCSDEDAQELLRESQISLLQLSTVEVATQLSMRNFELFRNIEPTEYIDDLFKLRSKTSCANLKRFEEVINQETFWVASEILRETNQLKRMKIIKHFIKIALHCRECKNFNSMFAIISGLNLAPVARLRTTWEKLPNKYEKLFQDLQDLFDPSRNMAKYRNVLNSQNLQPPIIPLFPVIKKDLTFLHEGNDSKVDGLVNFEKLRMIAKEIRHVGRMASVNMDPALMFRTRKKKWRSLGSLSQGSTNATVLDVAQTGGHKKRVRRSSFLNAKKLYEDAQMARKVKQYLSNLELEMDEESLQTLSLQCEPATNTLPKNPGDKKPVKSETSPVAPRAGSQQKAQSLPQPQQQPPPAHKINQGLQVPAVSLYPSRKKVPVKDLPPFGINSPQALKKILSLSEEGSLERHKKQAEDTISNASSQLSSPPTSPQSSPRKGYTLAPSGTVDNFSDSGHSEISSRSSIVSNSSFDSVPVSLHDERRQRHSVSIVETNLGMGRMERRTMIEPDQYSLGSYAPMSEGRGLYATATVISSPSTEELSQDQGDRASLDAADSGRGSWTSCSSGSHDNIQTIQHQRSWETLPFGHTHFDYSGDPAGLWASSSHMDQIMFSDHSTKYNRQNQSRESLEQAQSRASWASSTGYWGEDSEGDTGTIKRRGGKDVSIEAESSSLTSVTTEETKPVPMPAHIAVASSTTKGLIARKEGRYREPPPTPPGYIGIPITDFPEGHSHPARKPPDYNVALQRSRMVARSSDTAGPSSVQQPHGHPTSSRPVNKPQWHKPNESDPRLAPYQSQGFSTEEDEDEQVSAV
For B1, the “enhancement of Ras activation in cells after 8-Br-cAMP (GST-Raf1-RBD precipitation)” value was 3.9 fold and the “enhancement of Ras activation in cells after 8-Br-cAMP plus H-89 (GST-Raf1-RBD precipitation)” value was 3.5 fold.
